Laboratory results taken from the supplement of paper PMC10065799, “High-throughput profiling of sequence recognition by tyrosine kinases and SH2 domains using bacterial peptide display” (eLife, 2023).

What was measured:
SHP2-C SH2 = assay: SH2 binding enrichment of the phosphorylated peptide, bacterial display (enrichment ratio); higher = better substrate or ligand; peptides without Tyr show the background
Grb2 SH2 = Grb2 SH2 (UniProt P62993); assay: as above
c-Src SH2 = assay: as above
EPHB2 = EPHB2 (UniProt P29323); assay: phosphorylation enrichment, bacterial display (enrichment ratio); higher = better substrate or ligand; peptides without Tyr show the background
Chain of EPHB2 (P29323 whole entry, looked up): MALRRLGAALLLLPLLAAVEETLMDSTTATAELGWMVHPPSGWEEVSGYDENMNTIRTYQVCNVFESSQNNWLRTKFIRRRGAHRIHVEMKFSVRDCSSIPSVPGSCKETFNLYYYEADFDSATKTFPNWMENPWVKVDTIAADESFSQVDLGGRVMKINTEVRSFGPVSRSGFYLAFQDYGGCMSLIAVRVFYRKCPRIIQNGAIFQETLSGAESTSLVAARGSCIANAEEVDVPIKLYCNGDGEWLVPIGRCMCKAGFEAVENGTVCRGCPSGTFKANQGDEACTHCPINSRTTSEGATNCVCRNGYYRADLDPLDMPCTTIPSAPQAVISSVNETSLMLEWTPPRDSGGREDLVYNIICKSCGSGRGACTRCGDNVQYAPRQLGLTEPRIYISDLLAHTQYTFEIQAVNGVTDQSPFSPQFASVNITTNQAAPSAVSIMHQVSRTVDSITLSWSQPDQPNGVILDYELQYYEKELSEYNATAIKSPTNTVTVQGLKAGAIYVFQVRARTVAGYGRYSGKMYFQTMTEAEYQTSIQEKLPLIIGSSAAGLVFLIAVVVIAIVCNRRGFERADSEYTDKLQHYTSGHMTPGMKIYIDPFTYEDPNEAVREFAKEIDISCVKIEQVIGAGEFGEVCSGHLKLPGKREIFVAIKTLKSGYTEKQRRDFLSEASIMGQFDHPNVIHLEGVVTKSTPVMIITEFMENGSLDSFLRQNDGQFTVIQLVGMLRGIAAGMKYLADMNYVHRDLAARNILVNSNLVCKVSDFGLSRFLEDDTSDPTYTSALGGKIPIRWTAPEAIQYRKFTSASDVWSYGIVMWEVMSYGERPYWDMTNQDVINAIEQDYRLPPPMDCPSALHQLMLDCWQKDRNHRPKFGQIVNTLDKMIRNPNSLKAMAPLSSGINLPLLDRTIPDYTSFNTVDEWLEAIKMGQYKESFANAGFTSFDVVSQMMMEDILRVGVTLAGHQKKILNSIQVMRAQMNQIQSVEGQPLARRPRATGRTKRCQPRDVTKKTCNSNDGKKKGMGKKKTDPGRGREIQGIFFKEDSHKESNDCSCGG

AncSZ = assay: as above
FGFR3 = FGFR3 (UniProt P22607); assay: as above
MERTK = MERTK (UniProt Q12866); assay: as above
Chain of MERTK (Q12866 whole entry, looked up): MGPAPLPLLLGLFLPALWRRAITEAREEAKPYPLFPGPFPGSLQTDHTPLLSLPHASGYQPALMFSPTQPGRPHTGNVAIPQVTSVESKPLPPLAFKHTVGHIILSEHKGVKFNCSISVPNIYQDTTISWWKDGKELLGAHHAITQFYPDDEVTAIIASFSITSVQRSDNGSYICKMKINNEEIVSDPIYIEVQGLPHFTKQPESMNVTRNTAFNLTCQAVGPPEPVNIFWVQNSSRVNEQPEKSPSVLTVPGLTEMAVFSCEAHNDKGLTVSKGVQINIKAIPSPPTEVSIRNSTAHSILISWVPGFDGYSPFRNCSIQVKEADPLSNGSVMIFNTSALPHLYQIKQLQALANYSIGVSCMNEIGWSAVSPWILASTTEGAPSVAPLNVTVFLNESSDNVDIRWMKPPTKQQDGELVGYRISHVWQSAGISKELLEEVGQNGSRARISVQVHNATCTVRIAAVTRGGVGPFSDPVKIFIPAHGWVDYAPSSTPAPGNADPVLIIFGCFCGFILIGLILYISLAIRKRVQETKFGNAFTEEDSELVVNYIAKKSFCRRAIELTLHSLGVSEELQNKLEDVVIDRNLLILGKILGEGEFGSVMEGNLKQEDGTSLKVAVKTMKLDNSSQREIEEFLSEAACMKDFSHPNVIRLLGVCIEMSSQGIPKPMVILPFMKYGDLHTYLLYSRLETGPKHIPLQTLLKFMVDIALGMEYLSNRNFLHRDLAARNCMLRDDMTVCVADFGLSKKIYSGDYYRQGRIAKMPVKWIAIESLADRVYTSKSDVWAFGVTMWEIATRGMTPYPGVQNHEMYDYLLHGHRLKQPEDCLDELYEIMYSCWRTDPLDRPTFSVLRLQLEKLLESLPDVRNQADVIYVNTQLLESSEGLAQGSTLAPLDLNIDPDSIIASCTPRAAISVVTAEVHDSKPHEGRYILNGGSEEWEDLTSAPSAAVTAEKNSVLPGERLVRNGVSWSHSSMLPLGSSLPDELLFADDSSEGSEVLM

Jak2 = Jak2 (UniProt O60674); assay: as above
Chain of Jak2 (O60674 whole entry, looked up): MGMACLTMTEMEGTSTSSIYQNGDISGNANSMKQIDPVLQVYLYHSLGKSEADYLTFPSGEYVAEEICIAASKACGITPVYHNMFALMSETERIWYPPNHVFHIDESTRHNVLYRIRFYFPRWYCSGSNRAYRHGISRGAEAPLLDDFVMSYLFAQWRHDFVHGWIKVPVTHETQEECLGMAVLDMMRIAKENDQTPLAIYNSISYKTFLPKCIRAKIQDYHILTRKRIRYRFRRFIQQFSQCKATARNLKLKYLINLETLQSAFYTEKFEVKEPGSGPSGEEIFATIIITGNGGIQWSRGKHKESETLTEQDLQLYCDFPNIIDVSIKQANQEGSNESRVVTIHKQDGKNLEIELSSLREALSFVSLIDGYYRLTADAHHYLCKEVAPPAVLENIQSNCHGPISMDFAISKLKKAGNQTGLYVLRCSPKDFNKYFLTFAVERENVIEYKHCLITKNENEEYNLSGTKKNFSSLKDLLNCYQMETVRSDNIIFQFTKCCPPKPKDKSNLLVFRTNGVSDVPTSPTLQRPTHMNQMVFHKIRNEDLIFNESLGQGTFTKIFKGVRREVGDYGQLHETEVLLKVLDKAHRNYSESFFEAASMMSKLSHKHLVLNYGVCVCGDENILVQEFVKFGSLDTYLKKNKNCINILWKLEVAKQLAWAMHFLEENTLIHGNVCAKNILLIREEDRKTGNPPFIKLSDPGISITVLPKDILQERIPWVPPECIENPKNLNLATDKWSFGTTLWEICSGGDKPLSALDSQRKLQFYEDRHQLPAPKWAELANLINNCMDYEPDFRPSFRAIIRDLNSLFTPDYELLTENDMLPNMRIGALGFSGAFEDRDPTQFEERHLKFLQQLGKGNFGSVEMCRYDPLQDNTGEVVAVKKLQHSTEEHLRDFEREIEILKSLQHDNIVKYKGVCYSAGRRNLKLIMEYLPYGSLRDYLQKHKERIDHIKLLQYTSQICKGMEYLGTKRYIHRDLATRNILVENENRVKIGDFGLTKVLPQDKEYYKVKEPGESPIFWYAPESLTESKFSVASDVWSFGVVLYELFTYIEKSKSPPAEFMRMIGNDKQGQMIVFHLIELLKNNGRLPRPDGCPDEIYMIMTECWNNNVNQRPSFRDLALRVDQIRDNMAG

Fer (mouse) = assay: as above
Hck = Hck (UniProt P08631); assay: as above
Chain of Hck (P08631 whole entry, looked up): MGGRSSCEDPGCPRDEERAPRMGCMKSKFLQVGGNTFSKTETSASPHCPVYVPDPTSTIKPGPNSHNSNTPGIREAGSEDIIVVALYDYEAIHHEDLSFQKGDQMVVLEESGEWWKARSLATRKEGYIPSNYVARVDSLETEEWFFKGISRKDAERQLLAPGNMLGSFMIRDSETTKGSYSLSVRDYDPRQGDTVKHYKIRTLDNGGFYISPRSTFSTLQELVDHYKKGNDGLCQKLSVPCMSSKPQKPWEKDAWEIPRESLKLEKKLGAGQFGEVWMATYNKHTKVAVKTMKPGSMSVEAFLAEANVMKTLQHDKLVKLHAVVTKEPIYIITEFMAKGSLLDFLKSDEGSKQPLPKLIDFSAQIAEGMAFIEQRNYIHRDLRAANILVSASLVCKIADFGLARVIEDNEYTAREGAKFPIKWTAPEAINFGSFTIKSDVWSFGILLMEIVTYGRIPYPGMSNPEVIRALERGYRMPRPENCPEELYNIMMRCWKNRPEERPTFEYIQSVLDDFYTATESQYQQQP

EPHB1 = EPHB1 (UniProt P54762); assay: as above
Chain of EPHB1 (P54762 whole entry, looked up): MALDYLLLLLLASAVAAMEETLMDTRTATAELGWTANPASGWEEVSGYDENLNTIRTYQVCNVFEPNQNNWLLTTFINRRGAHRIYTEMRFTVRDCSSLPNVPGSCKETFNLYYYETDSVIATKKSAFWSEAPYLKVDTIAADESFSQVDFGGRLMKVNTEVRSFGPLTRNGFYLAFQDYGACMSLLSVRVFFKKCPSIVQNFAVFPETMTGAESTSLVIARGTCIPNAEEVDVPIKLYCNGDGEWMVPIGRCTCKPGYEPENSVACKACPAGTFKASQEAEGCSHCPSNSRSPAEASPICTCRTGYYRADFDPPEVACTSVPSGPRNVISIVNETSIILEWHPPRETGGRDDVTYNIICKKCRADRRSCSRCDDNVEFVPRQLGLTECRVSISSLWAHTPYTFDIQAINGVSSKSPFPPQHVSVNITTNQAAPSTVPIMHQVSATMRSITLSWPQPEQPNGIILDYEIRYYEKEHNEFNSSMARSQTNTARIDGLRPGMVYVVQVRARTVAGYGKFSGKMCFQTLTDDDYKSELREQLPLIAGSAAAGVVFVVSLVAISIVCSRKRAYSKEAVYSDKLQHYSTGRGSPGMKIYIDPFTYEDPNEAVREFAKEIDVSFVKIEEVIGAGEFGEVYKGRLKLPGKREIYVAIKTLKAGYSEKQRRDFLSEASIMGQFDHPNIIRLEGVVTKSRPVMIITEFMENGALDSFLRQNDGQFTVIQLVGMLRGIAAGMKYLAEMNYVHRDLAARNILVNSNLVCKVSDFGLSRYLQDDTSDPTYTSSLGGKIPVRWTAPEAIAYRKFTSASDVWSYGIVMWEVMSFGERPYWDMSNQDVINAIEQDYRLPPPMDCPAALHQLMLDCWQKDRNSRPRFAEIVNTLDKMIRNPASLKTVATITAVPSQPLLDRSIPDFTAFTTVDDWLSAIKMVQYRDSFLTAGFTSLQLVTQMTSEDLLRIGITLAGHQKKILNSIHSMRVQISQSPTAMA

c-Src = assay: as above
Fyn = Fyn (UniProt P06241); assay: as above
FGFR1 = FGFR1 (UniProt P11362); assay: as above
c-Abl (mouse) = assay: as above
Fes = Fes (UniProt P07332); assay: as above
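Wherever SH2 binding enrichment of the phosphorylated peptide, bacterial display is given: peptide library displayed on the E. coli surface as eCPX fusions, selected cells deep-sequenced, score is each peptide's frequency after selection divided by its frequency in the input.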
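Wherever phosphorylation enrichment, bacterial display is given: 11-residue human phosphosite peptides and single-mutation variants displayed on the E. coli surface, counted by deep sequencing, each peptide's frequency after selection divided by its frequency in the unselected input library; frequency after pTyr selection over input frequency; kinase dosed for 20-30% of maximal phosphorylation in three min.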

Row | SH2 binding enrichment (SHP2-C SH2) | SH2 binding enrichment (Grb2 SH2) | SH2 binding enrichment (c-Src SH2) | Sequence | phosphorylation enrichment (EPHB2) | phosphorylation enrichment (AncSZ) | phosphorylation enrichment (FGFR3) | phosphorylation enrichment (MERTK) | phosphorylation enrichment (Jak2) | phosphorylation enrichment (Fer (mouse)) | phosphorylation enrichment (Hck) | phosphorylation enrichment (EPHB1) | phosphorylation enrichment (c-Src) | phosphorylation enrichment (Fyn) | phosphorylation enrichment (FGFR1) | phosphorylation enrichment (c-Abl (mouse)) | phosphorylation enrichment (Fes)
1 | 0.247 | 0.509 | 1.46 | KDQGTYEDFVE [MYL6_Y86_YF] | 0.59 | 1.31 | 1.35 | 1.12 | 1.94 | 0.911 | 0.966 | 0.569 | 1.31 | 0.616 | 0.906 | 1.97 | 2.32
2 | 0.611 | 0.819 | 0.384 | ARSMEYLAEQK [MST1R_Y1198] | 0.493 | 0.755 | 0.622 | 0.548 | 1.08 | 0.403 | 0.622 | 0.488 | 0.474 | 0.585 | 0.471 | 0.655 | 0.839
3 | 3 | 2.77 | 1.64 | QKKPRYEIRWK [PDGFRB_Y562] | 0.919 | 1.96 | 2.06 | 1.16 | 1.74 | 1.02 | 0.723 | 0.928 | 0.605 | 0.895 | 0.756 | 1.05 | 1.75
4 | 1 | 1.06 | 0.74 | ARMTNCGLPRF [TSPAN12_Y138_Y138C_YF] | 0.421 | 0.58 | 0.453 | 0.368 | 0.492 | 0.352 | 0.358 | 0.292 | 0.323 | 0.322 | 0.387 | 0.591 | 0.689
5 | 0.711 | 0.864 | 0.614 | ELPEKYSQNIF [PKP2_Y626_YF] | 0.492 | 0.989 | 0.659 | 0.538 | 1.09 | 0.423 | 0.507 | 0.528 | 0.539 | 0.413 | 0.579 | 0.605 | 1.05
6 | 0.63 | 0.937 | 11.8 | IVRSLYEDVED [VHL_Y185_L188V] | 0.701 | 1.3 | 0.674 | 0.458 | 1.21 | 1.69 | 0.526 | 0.611 | 0.51 | 0.488 | 0.502 | 0.834 | 1.26
7 | 0.941 | 1 | 7.73 | FVTSMYNEILM [TRPV1_Y310] | 0.596 | 1.16 | 0.932 | 0.756 | 1.39 | 3.38 | 0.957 | 0.765 | 0.693 | 0.647 | 0.641 | 0.832 | 1.38
8 | 0.626 | 0.771 | 0.47 | KSDVMYTDWKK [ORM1_Y175_V174M] | 0.454 | 0.738 | 0.682 | 0.562 | 0.764 | 0.463 | 2.03 | 0.488 | 0.616 | 0.485 | 0.416 | 0.689 | 0.842
9 | 1.07 | 1.08 | 0.685 | IFCIQYNIRAF [MYH4_Y820] | 0.678 | 1.57 | 1.08 | 0.436 | 1.57 | 0.596 | 0.608 | 0.821 | 0.599 | 0.445 | 0.525 | 1.35 | 1.76
10 | 0.735 | 0.769 | 0.485 | QWRTKYETDTI [MYH7_Y1375_A1379T] | 0.797 | 0.819 | 0.757 | 0.414 | 1.56 | 0.5 | 0.624 | 0.616 | 0.56 | 0.489 | 0.473 | 0.798 | 1.49
11 | 0.66 | 0.851 | 0.507 | SSPVPYLSPET [TJP1_Y931] | 0.502 | 0.789 | 0.627 | 0.409 | 0.719 | 0.453 | 0.445 | 0.442 | 0.422 | 0.541 | 0.482 | 0.646 | 0.835

Continued, sequence first:

Row | Sequence | SH2 binding enrichment (SHP2-C SH2) | SH2 binding enrichment (Grb2 SH2) | SH2 binding enrichment (c-Src SH2) | phosphorylation enrichment (EPHB2) | phosphorylation enrichment (AncSZ) | phosphorylation enrichment (FGFR3) | phosphorylation enrichment (MERTK) | phosphorylation enrichment (Jak2) | phosphorylation enrichment (Fer (mouse)) | phosphorylation enrichment (Hck) | phosphorylation enrichment (EPHB1) | phosphorylation enrichment (c-Src) | phosphorylation enrichment (Fyn) | phosphorylation enrichment (FGFR1) | phosphorylation enrichment (c-Abl (mouse)) | phosphorylation enrichment (Fes)
12 | REDIFYTSKLW [AKR1C2_Y81] | 0.838 | 1.04 | 0.598 | 0.796 | 1.07 | 1.01 | 0.645 | 0.947 | 0.543 | 0.77 | 0.978 | 0.438 | 0.692 | 0.592 | 0.607 | 1.12
13 | SGIYQYSIAKF [FOXL2_Y83_I84S] | 11.8 | 0.994 | 2.06 | 2.75 | 1.83 | 1.46 | 9.44 | 1.04 | 13.4 | 5.59 | 4.84 | 4.12 | 4.54 | 1.71 | 7.69 | 1.18
14 | TIMTDYNPNYC [ALK_Y1092] | 0.654 | 1.11 | 0.663 | 0.531 | 1.33 | 0.904 | 0.6 | 1.24 | 0.548 | 0.66 | 0.999 | 0.552 | 0.439 | 0.715 | 0.923 | 1.26
15 | SIKDKYLTALY [KCNH2_Y611_V612L] | 0.634 | 0.968 | 0.565 | 0.452 | 0.727 | 0.546 | 0.439 | 0.624 | 0.44 | 0.651 | 0.456 | 0.623 | 0.56 | 0.417 | 0.487 | 0.707
16 | RQGKDYVGAIP [KDR_Y951] | 0.79 | 0.818 | 0.488 | 0.442 | 0.705 | 0.409 | 0.485 | 0.656 | 0.361 | 0.452 | 0.471 | 0.487 | 0.552 | 1.44 | 0.636 | 0.832
17 | AVLSLYASGCT [ACTA2_Y145_R149C] | 0.547 | 0.861 | 0.379 | 0.658 | 1.2 | 0.811 | 0.432 | 1.2 | 0.576 | 0.634 | 0.825 | 0.46 | 0.538 | 0.512 | 0.965 | 1.39
18 | LVKDGYQMAQP [CSF1R_Y873] | 1.01 | 0.874 | 0.634 | 0.392 | 0.609 | 0.527 | 0.32 | 0.512 | 0.462 | 0.499 | 0.39 | 0.396 | 0.357 | 0.45 | 0.691 | 0.723
19 | DRLTVYIDRVR [LMNA_Y45_A43T] | 0.919 | 0.953 | 0.636 | 0.614 | 1.34 | 0.779 | 0.312 | 1.15 | 0.433 | 0.458 | 0.553 | 0.324 | 0.409 | 0.426 | 0.749 | 1.26
20 | ADFFDYGRGLS [KHDRBS3_Y304_H306R_YF] | 0.554 | 0.82 | 0.625 | 0.522 | 0.808 | 0.702 | 0.369 | 0.798 | 0.4 | 0.421 | 0.426 | 0.521 | 0.518 | 0.414 | 0.59 | 0.746
21 | AGAKTYKMSMA [CPS1_Y309] | 0.819 | 0.688 | 0.586 | 0.264 | 0.389 | 0.426 | 0.364 | 0.527 | 0.406 | 0.374 | 0.328 | 0.399 | 0.402 | 0.309 | 0.383 | 0.405
22 | LERFIYNREEF [HLA-DPB1_Y59_F64Y_YF] | 0.631 | 0.704 | 0.607 | 0.76 | 1.68 | 1.79 | 0.652 | 1.39 | 0.719 | 1.29 | 0.63 | 2.07 | 1.08 | 0.632 | 0.857 | 1.49
23 | EEKKKYFDAKI [CASP5_Y103_T106A_YF] | 0.672 | 1.01 | 0.446 | 0.43 | 0.798 | 0.464 | 0.501 | 0.684 | 0.401 | 0.442 | 0.385 | 0.479 | 0.4 | 0.488 | 0.58 | 0.818
24 | IGCHAYGDQFR [IDH1_Y135_R132C_YF] | 0.577 | 0.825 | 0.516 | 0.532 | 0.933 | 0.659 | 0.497 | 0.933 | 0.55 | 0.51 | 0.516 | 0.611 | 0.495 | 0.529 | 0.82 | 1.04
25 | TLNVRHESVQA [CEACAM7_Y236_Y236H] | 0.714 | 0.978 | 0.579 | 0.44 | 0.564 | 0.39 | 0.348 | 0.831 | 0.374 | 0.366 | 0.38 | 0.466 | 0.378 | 0.451 | 0.415 | 0.59
26 | EAESWYQTKFE [KRT75_Y342_YF] | 0.434 | 0.794 | 0.699 | 0.568 | 1.06 | 0.808 | 0.436 | 0.906 | 0.624 | 0.735 | 0.721 | 0.583 | 0.662 | 0.49 | 0.684 | 1.18
27 | KAPVDYIRKLQ [MITF_Y360_S357P] | 0.621 | 0.912 | 0.489 | 0.436 | 0.547 | 0.423 | 0.399 | 0.576 | 0.365 | 0.346 | 0.416 | 0.406 | 0.338 | 0.328 | 0.475 | 0.616
28 | NAPNSYGRRPI [CDKN2A_Y44] | 0.799 | 0.726 | 0.392 | 1.21 | 1.23 | 0.81 | 0.713 | 0.76 | 1.2 | 0.757 | 0.581 | 0.75 | 0.678 | 0.692 | 0.885 | 0.952
29 | GSRGKYSSGFR [ATM_Y332] | 0.912 | 1.15 | 0.833 | 0.36 | 0.512 | 0.453 | 0.559 | 0.62 | 0.793 | 0.338 | 0.318 | 0.649 | 0.38 | 0.657 | 0.547 | 0.603
